Data: patent publication US20220162323A1 (Regeneron, published 2022)

What was measured:
hFGFR2c.mmh = target: T1, hFGFR2c.mmh (human, UniProt P21802 22-377); assay: SPR (Biacore), antibody captured by anti-human Fc, hFGFR2c-MMH as analyte, 25 C
T1 construct: also called Human FGFR2c with C-terminal myc-myc-hexahistidine tag
Protocol: The equilibrium dissociation constants (KD values) for hFGFR2b.mmh binding to anti-FGFR2 antibodies conjugated with Tubulysin (“tubulysin 1ALP”), Auristatin (“auristatin LP1”), or mc-VC-PAB-NMe-C3-May (“maytansinoid 1ALP”) were determined using a real-time surface plasmon resonance biosensor assay on a Biacore 2000 or a Biacore 4000 instrument. The Biacore sensor surface was derivatized by amine coupling with a monoclonal mouse anti-human Fc antibody (REGN2567 or Jackson Cat. No #109-005-098) to capture anti-FGFR2 ADC and parent unmodified antibodies expressed with human constant regions. Biacore binding studies were performed in HBS-EP running buffer (0.01M HEPES pH 7.4, 0.15M NaCl, 3 mM EDTA, 0.05% v/v Surfactant P20). […] Association of hFGFR2b-MMH or hFGFR2c-MMH to each of the captured ADCs and monoclonal antibodies was monitored for 4 minutes. Subsequently, dissociation was monitored for 10 minutes in HBS-EP running buffer. […] Kinetic association (kₐ) and dissociation (kd) rate constants were determined by fitting the real-time sensorgrams to a 1:1 binding model using Scrubber 2.0c curve fitting software. […] Binding dissociation equilibrium constants (KD) and dissociative half-lives (t½) were calculated from the kinetic rate constants as: […]

hFGFR2b.mmh [1] = target: T2, hFGFR2b.mmh (human); assay: SPR (Biacore), antibody captured by anti-human Fc, hFGFR2b-MMH as analyte, 25 C
T2 construct: also called Human FGFR2b with C-terminal myc-myc-hexahistidine tag
T2 chain: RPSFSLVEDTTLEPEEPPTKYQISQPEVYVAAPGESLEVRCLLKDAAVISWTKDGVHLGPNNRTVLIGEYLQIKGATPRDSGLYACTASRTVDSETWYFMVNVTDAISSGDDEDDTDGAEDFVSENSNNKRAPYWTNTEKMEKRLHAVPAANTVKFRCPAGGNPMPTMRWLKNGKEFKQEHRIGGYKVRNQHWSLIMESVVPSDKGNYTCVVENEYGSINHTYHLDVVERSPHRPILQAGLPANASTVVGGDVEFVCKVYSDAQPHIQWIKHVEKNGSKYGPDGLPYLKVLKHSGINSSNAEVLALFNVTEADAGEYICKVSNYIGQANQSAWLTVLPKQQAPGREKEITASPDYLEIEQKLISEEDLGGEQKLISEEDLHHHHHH
Protocol: (§1) The equilibrium dissociation constants (KD values) for hFGFR2b.mmh binding to anti-FGFR2 antibodies conjugated with Tubulysin (“tubulysin 1ALP”), Auristatin (“auristatin LP1”), or mc-VC-PAB-NMe-C3-May (“maytansinoid 1ALP”) were determined using a real-time surface plasmon resonance biosensor assay on a Biacore 2000 or a Biacore 4000 instrument. The Biacore sensor surface was derivatized by amine coupling with a monoclonal mouse anti-human Fc antibody (REGN2567 or Jackson Cat. No #109-005-098) to capture anti-FGFR2 ADC and parent unmodified antibodies expressed with human constant regions. Biacore binding studies were performed in HBS-EP running buffer (0.01M HEPES pH 7.4, 0.15M NaCl, 3 mM EDTA, 0.05% v/v Surfactant P20). Human FGFR2b and Human FGFR2c were prepared in-house expressing a C-terminal myc-myc-hexahistidine tag (hFGFR2b-MMH—SEQ ID NO: 57; hFGFR2c-MMH—SEQ ID NO: 58). […] Association of hFGFR2b-MMH or hFGFR2c-MMH to each of the captured ADCs and monoclonal antibodies was monitored for 4 minutes. Subsequently, dissociation was monitored for 10 minutes in HBS-EP running buffer. Anti-human Fc surface was regenerated by a brief injection of 20 mM H₃PO₄. All binding kinetic experiments were performed at 25° C. Kinetic association (kₐ) and dissociation (kd) rate constants were determined by fitting the real-time sensorgrams to a 1:1 binding model using Scrubber 2.0c curve fitting software. All sensorgrams were double referenced by subtracting buffer injection sensorgram signal from the corresponding analyte sensorgram, thereby removing artifacts caused by dissociation of the antibody from the capture surface. Binding dissociation equilibrium constants (KD) and dissociative half-lives (t½) were calculated from the kinetic rate constants as: […]

[2] = target: T3, FGFR2b on SNU-16 and MFM-223 cells (human, UniProt P21802 22-821); assay: cell-based or functional assay
T3 chain: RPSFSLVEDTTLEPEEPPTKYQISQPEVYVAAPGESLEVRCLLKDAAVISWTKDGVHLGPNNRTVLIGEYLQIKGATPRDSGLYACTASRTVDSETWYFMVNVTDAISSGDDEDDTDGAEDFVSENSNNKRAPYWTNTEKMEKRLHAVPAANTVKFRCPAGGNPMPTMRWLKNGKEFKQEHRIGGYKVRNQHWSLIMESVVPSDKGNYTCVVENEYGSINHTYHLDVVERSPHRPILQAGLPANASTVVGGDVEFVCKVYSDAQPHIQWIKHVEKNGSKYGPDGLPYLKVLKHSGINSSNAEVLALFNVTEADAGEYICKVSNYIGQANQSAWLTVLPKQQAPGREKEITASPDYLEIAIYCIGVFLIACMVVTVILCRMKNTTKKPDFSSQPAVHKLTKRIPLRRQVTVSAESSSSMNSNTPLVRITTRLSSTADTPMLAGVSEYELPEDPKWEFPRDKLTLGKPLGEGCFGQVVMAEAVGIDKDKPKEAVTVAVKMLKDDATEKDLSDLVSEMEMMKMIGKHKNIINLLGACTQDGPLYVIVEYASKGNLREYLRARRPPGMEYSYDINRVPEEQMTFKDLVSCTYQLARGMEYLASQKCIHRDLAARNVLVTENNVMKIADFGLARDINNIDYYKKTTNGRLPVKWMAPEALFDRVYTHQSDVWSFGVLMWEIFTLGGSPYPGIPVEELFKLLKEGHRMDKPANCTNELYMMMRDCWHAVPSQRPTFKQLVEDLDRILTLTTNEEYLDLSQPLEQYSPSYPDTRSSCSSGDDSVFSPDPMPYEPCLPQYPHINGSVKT

[3] = target: T3, FGFR2b on SNU-16 and MFM-223 cells; assay: cell-based or functional assay
hFGFR2b.mmh [4] = target: T2, hFGFR2b.mmh; assay: SPR (Biacore), ADC captured by anti-human Fc, hFGFR2b-MMH as analyte, 25 C
Protocol: as §1

Binder | Antigen Bound (RU) (hFGFR2c.mmh) | Antigen Bound (RU) (hFGFR2b.mmh [1]) | Kd (hFGFR2b.mmh [1]) | koff (hFGFR2b.mmh [1]) | kon (hFGFR2b.mmh [1]) | t1/2 (hFGFR2b.mmh [1]) | IC50 (M), CellTiter-Glo cytotoxicity, MFM-223 cells, 6 days [2] | IC50 (M), CellTiter-Glo cytotoxicity, SNU-16 cells, 6 days [2] | Max % Kill, MFM-223 cells [2] | Max % Kill, SNU-16 cells [2] | IC50 (M), cytotoxicity, SNU-16 monoculture, 5 days (bystander assay) [3] | Max % Kill, SNU-16 monoculture (bystander assay) [3] | Antigen Bound (RU) (hFGFR2b.mmh [4]) | t1/2 (hFGFR2b.mmh [4]) | Kd (hFGFR2b.mmh [4]) | binding result (hFGFR2c.mmh)
Comp1 (antibody, INN chains, looked up, V domains shown) VH: QVQLVQSGAEVKKPGSSVKVSCKASGYIFTTYNVHWVRQAPGQGLEWIGSIYPDNGDTSYNQNFKGRATITADKSTSTAYMELSSLRSEDTAVYYCARGDFAYWGQGTLVTVSS VL: DIQMTQSPSSLSASVGDRVTITCKASQGVSNDVAWYQQKPGKAPKLLIYSASYRYTGVPSRFSGSGSGTDFTFTISSLQPEDIATYYCQQHSTTPYTFGQGTKLEIK | 0.6 RU | 68.3 RU | 60.8 nM | 0.00471 s⁻¹ | 77400 M⁻¹ s⁻¹ | 2.5 min |  |  |  |  |  |  |  |  |  | 
mAb2-tubulysin 1ALP (antibody, V domains shown, deglycosylated; Q295 carries azido-PEG3-amine clicked to Tubulysin 1A-LP; DAR 2.1 per antibody, also called Anti FGFR2 mAb2-PEG3-N3-Tubulysin 1A-LP) VH: QVQLVESGGGVVQPGKSLRLSCAASGFTFSNYGMHWVRQTPVKGLEWVTLIWYDGSNKYYTDSVKGRFTISRDNSKNTLYLQMNSLRSEDTAVYYCAREGNWNYGHAFDIWGQGTMVTVSS VL: DIQMTQSPSTLSASVGDRVTITCRASQNIGNWLAWYQQKPGKAPNLLIYKASTLESGVPSRFSGSGSGTEFTLTISSLQPDDFATYNCQQYNSYSPTFGQGTKLEIKR |  |  |  |  |  |  | 6.36e-11 M | 3.7e-11 M | 90% | 95.3% | 2.73e-11 M | 97.2% | 32.7 RU | 9.8 min |  | 
mAb1-tubulysin 1ALP (antibody, human IgG4 S228P, kappa, V domains shown, deglycosylated; Q295 carries azido-PEG3-amine clicked to Tubulysin 1A-LP; DAR 2.1 per antibody, also called Anti FGFR2 mAb1-PEG3-N3-Tubulysin 1A-LP) VH: QVQLVESGGGVVQPGRSLRLSCAASGFTFSSYGMHWVRQAPGKGLEWVAVIWYDGSNKYYADSVKGRFTISRDNSKNTLYLQMNSLRAEDTAVYYCAREESSASGVDYWGQGTLVTVSS VL: EIVLTQSPGTLSLSPGERATLSCRASQSVSTRYLAWYQQKRGQAPRLLIYGASSRATGIPDRFSGSGSGTDFTLTISRLEPEDFAVYYCQEYGSSSITFGQGTRLEIKR |  |  |  |  |  |  | 1.25e-10 M | 4.34e-11 M | 91.1% | 95.4% | 6.69e-11 M | 97.1% | 36.4 RU | 7.4 min |  | 
mAb2-maytansinoid 1ALP (antibody, V domains shown, maytansinoid 1ALP (mc-VC-PAB-NMe-C3-May) linker-payload conjugated; residues not stated in Example 5; DAR 1.9 per antibody, it is written on the heavy chain only for want of a better place; also called FGFR2 maytansinoid ADC) VH: QVQLVESGGGVVQPGKSLRLSCAASGFTFSNYGMHWVRQTPVKGLEWVTLIWYDGSNKYYTDSVKGRFTISRDNSKNTLYLQMNSLRSEDTAVYYCAREGNWNYGHAFDIWGQGTMVTVSS VL: DIQMTQSPSTLSASVGDRVTITCRASQNIGNWLAWYQQKPGKAPNLLIYKASTLESGVPSRFSGSGSGTEFTLTISSLQPDDFATYNCQQYNSYSPTFGQGTKLEIKR |  |  |  |  |  |  | 1.72e-10 M | 2.06e-10 M | 91.1% | 95% | 6.45e-10 M | 94.8% | 31.3 RU | 13.1 min | 12.8 nM | 
mAb1-maytansinoid 1ALP (antibody, V domains shown, maytansinoid 1ALP (mc-VC-PAB-NMe-C3-May) linker-payload conjugated; residues not stated in Example 5; DAR 2.5 per antibody, it is written on the heavy chain only for want of a better place) VH: QVQLVESGGGVVQPGRSLRLSCAASGFTFSSYGMHWVRQAPGKGLEWVAVIWYDGSNKYYADSVKGRFTISRDNSKNTLYLQMNSLRAEDTAVYYCAREESSASGVDYWGQGTLVTVSS VL: EIVLTQSPGTLSLSPGERATLSCRASQSVSTRYLAWYQQKRGQAPRLLIYGASSRATGIPDRFSGSGSGTDFTLTISRLEPEDFAVYYCQEYGSSSITFGQGTRLEIKR |  |  |  |  |  |  | 2.14e-10 M | 2.68e-10 M | 85.5% | 93.1% |  |  | 42.1 RU | 11.1 min | 41.8 nM | 
mAb1 (antibody, human IgG4 S228P, kappa, V domains shown, also called anti-FGFR2 antibody mAb1; mAb1 (Unconjugated)) VH: QVQLVESGGGVVQPGRSLRLSCAASGFTFSSYGMHWVRQAPGKGLEWVAVIWYDGSNKYYADSVKGRFTISRDNSKNTLYLQMNSLRAEDTAVYYCAREESSASGVDYWGQGTLVTVSS VL: EIVLTQSPGTLSLSPGERATLSCRASQSVSTRYLAWYQQKRGQAPRLLIYGASSRATGIPDRFSGSGSGTDFTLTISRLEPEDFAVYYCQEYGSSSITFGQGTRLEIKR |  |  | 25 nM | 0.00104 s⁻¹ | 41700 M⁻¹ s⁻¹ | 11.1 min |  |  |  |  |  |  |  |  |  | no binding (tested: 30 nM (highest concentration injected))
mAb2 (antibody, V domains shown, also called anti-FGFR2 antibody mAb2; mAb2 (Unconjugated)) VH: QVQLVESGGGVVQPGKSLRLSCAASGFTFSNYGMHWVRQTPVKGLEWVTLIWYDGSNKYYTDSVKGRFTISRDNSKNTLYLQMNSLRSEDTAVYYCAREGNWNYGHAFDIWGQGTMVTVSS VL: DIQMTQSPSTLSASVGDRVTITCRASQNIGNWLAWYQQKPGKAPNLLIYKASTLESGVPSRFSGSGSGTEFTLTISSLQPDDFATYNCQQYNSYSPTFGQGTKLEIKR |  |  | 8.92 nM | 0.000447 s⁻¹ | 50100 M⁻¹ s⁻¹ | 25.8 min |  |  |  |  |  |  |  |  |  | 
